Measured values published in publication PMC4770226.

Key:
[1] = molecular target: Ku70/Ku80 heterodimer, wild-type (human, UniProt P12956;P13010 1-609;1-732); assay: pull-down
Ku70-5A/Ku80 heterodimer = Ku70-5A/Ku80 heterodimer (human, UniProt P12956;P13010 1-609;1-732, T305A;S306A;T307A;S314A;T316A;Ku70:); assay: pull-down
Ku70-5A/Ku80 heterodimer, sequence (P12956 whole entry T305A/S306A/T307A/S314A/T316A, chain 1 of 2): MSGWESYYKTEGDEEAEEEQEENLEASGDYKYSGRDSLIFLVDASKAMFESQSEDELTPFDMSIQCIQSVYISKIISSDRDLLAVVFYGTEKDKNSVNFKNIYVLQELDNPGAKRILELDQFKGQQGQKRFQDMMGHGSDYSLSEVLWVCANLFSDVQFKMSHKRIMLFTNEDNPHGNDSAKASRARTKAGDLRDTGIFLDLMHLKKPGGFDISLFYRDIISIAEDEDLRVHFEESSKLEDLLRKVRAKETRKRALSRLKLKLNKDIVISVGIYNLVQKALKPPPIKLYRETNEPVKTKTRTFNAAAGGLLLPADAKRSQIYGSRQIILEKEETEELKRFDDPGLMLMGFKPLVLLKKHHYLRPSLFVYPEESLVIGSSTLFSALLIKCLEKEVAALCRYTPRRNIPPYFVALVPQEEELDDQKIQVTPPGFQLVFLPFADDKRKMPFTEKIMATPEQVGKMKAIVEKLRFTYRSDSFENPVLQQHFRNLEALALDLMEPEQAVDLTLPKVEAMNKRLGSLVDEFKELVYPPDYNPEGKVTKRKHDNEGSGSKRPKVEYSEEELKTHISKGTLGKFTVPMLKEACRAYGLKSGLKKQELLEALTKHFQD
Ku70-5A/Ku80 heterodimer, sequence (P13010 whole entry, stated change not applied, chain 2 of 2): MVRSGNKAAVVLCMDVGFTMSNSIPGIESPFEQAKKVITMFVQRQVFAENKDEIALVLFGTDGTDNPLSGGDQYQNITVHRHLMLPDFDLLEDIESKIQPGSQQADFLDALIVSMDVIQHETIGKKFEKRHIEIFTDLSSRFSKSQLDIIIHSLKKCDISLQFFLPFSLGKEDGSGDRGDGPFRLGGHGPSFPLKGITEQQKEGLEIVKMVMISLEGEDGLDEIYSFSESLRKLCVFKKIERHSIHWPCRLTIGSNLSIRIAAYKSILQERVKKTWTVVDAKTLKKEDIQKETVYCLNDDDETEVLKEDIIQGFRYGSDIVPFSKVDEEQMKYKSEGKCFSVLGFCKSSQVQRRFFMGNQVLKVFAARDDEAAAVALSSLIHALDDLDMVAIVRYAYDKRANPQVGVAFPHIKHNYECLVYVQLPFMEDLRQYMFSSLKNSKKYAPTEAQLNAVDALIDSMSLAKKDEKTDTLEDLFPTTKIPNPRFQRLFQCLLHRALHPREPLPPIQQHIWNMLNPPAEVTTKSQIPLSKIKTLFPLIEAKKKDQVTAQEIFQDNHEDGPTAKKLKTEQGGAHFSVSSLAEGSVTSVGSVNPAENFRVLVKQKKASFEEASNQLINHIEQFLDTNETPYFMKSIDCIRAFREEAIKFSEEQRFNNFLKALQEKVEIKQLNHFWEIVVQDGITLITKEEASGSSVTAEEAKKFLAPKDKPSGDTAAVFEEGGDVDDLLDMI

Ku70/Ku80 heterodimer, wild-type, sequence (P12956 whole entry, chain 1 of 2): as the sequence (P12956 whole entry T305A/S306A/T307A/S314A/T316A, chain 1 of 2) above, with A305T, A306S, A307T, A314S, A316T counted along it
Ku70/Ku80 heterodimer, wild-type, sequence (P13010 whole entry, chain 2 of 2): as the sequence (P13010 whole entry, stated change not applied, chain 2 of 2) above

B1: biotin-labeled forked 22-mer dsDNA (dsDNA)
DNA 1: CGCGCCCAGCTTTCCCAGCTAATAAACTAAAAACTCCTAAGG
DNA 2: CCTTAGGAGTTTTTAGTTTATTGGGCGCG
binding result [1]: binds | binding result (Ku70-5A/Ku80 heterodimer): binds
